Measurements reported in US6638941B1, “Conformationallly constrained peptidomimetics as β-turn templates and modulators of SH3 domains” (OSI Pharmaceuticals, Inc., priority 1997, dated 2003).

Tests used:
Lyn SH3 domain = biological target: T1, Lyn SH3 domain (Homo sapiens, UniProt P07948); assay: Inhibition of Lyn SH3-GST fusion protein binding to immobilized p85 proline-rich peptide, surface plasmon resonance (BIAcore); details: Lyn SH3-GST fusion protein (1 μM) incubated with 0.01-100 μM spirolactam or non-biotinylated canonical peptide prior to injection; 25° C.; concentration behind the values not stated
T1 construct: Lyn SH3-GST fusion proteins were generated as previously described; made in house
Procedure: The ability of spirolactams to bind to SH3 domains was assessed by measuring their ability to inhibit the binding of cononical proline-rich peptide to purified Lyn SH3 domain. This inhibition was measured by surface plasmon resonance.
Lyn SH3-GST fusion proteins were generated as previously described (Pleiman, et al., Mol & Cellular Biol. 13(9):5877 (1993)), purified from bacterial lysates by glutathione affinity chromatography and eluted by competition. Aggregates were removed by size exclusion chromatography on Sephadex 75 (Pharmacia Biotech, Uppsala, Sweden).
Surface plasmon resonance measurements were performed on a BIAcore 2000 biosensor (BIAcore AB, Uppsala, Sweden). A synthetic canonical proline-rich peptide derived from phosphatidylinositol 3 kinase p85 (Pleiman, et al., (1994) Science 263:1609 (1994)); GGGKPRPPRPLPVAPGSS (SEQ ID NO:5) was immobilized on a prepared streptavidin coated sensor chip (Sensor Chip SA, BIAcore AB) via an N-terminal biotin moiety at a density of 0.05 pmol/mm^2. […] Dissociation was monitored during subsequent washing of the chip with running buffer for an additional 5.0 minutes. […]
To test their activity, 0.01-100 μM spirolactam or non-biotinylated canonical peptide was incubated with the fusion protein prior to injection. Data were recorded in real-time as sensorgrams and analyzed subsequently using BIA evaluation 2.0 software (BIAcore AB).

[1] = biological target: Lyn SH3-GST fusion protein; assay: SPR competition, compound (0.01-100 uM) incubated with Lyn SH3-GST before injection over immobilized biotinylated p85 peptide

T1 sequence (P07948 63-123 limits assumed): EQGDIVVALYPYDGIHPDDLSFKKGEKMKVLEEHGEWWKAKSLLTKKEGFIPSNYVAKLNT

Percent Binding (Relative binding affinity to SH3 domain) (Lyn SH3 domain)	Percent Binding [1]	Molecule
81%	–	Ac-GGGKPRPPRPLPVAPGSS-OH [Ac-GGGKPRPPRPLPVAP-GSS-OH, non-biotinylated canonical proline-rich peptide derived from phosphatidylinositol 3 kinase p85, reference compound]
–	81%	Ac-GGGKPRPPRPLPVAPGSS-OH [Ac-…-OH]
